Columns and labels:
p110alpha E545K = target: T1, p110alpha E545K (Homo sapiens, UniProt P42336, E545K); assay: Co-immunoprecipitation of HA-tagged p85α with p110α in transfected Cos 7 cells; type: binding; set-up: key: “yes” (“Y”); “no” (“N”); details: HA bead immunoprecipitation, blot
T1 construct: expressed in transfected cells; host or cells: Cos 7
Method: (§1) The ability of p85α mutants to bind to p110α was assessed. Cos 7 cells were transiently transfected with nucleic acid encoding N-terminally HA-tagged p85α protein (either wild-type or mutant, as indicated in Table 2 below) and with nucleic acid encoding p110α (either wild-type or mutant, as indicated in Table 2 below). Proteins were immunoprecipitated using HA beads, separated by SDS-PAGE, transferred to nitrocellulose, and detected using anti-HA and anti-p110α antibodies. Binding of p85α to p110α is indicated as either “yes” (“Y”) or “no” (“N”) in Table 2. In the second row of Table 2, the term “p85 Dominant Negative” refers to a known dominant negative form of p85α in which the p110α binding domain from amino acids 479-513 is deleted. The remaining mutant forms of p85α listed in the first column of Table 2 were discovered pursuant to this study. In the header row of Table 2, the terms “p110alpha E545K” and “p110alpha H1047R” refer to two known mutational “hot spots” in p110α which result in constitutively active p110α.

p110alpha H1047R = target: T2, p110alpha H1047R (Homo sapiens, UniProt P42336, H1047R); assay: as above; type: binding; set-up: key: “yes” (“Y”); “no” (“N”); details: HA bead immunoprecipitation, blot
T2 construct: expressed in transfected cells; host or cells: Cos 7
T2 sequence (P42336 whole entry H1047R): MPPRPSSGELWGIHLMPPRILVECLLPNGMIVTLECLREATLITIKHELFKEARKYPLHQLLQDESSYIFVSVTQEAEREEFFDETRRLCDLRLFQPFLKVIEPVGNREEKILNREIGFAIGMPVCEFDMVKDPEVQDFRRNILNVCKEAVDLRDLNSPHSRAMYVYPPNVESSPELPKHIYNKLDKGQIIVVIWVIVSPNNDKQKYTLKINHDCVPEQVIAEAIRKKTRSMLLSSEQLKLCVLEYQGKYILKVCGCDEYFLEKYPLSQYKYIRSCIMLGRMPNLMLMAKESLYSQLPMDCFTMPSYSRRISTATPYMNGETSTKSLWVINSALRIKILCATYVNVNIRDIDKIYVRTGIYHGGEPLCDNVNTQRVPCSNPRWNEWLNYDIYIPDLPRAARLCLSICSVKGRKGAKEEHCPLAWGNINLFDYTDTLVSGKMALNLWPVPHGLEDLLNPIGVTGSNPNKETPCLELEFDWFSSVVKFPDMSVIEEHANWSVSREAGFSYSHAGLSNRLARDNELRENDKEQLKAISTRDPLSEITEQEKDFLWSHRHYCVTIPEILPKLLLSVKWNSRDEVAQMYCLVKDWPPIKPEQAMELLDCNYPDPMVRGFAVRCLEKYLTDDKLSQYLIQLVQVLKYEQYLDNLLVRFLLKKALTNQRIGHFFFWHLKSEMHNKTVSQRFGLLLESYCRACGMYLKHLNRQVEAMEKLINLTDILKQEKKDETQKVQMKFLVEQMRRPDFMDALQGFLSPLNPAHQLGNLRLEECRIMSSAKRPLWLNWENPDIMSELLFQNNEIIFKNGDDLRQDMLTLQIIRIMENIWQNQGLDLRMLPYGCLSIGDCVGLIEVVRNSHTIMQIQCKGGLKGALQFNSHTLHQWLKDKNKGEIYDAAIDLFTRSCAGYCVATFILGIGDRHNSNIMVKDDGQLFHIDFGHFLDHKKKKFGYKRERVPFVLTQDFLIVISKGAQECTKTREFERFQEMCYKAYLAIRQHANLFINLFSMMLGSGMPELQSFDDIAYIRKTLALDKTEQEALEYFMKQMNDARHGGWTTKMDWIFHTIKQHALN
Method: as §1

p110alpha WT = target: T3, p110alpha WT (Homo sapiens, UniProt P42336); assay: as above; type: binding; set-up: key: “yes” (“Y”); “no” (“N”); details: HA bead immunoprecipitation, blot
T3 construct: expressed in transfected cells; host or cells: Cos 7
T3 sequence (P42336 whole entry): as the sequence (P42336 whole entry H1047R) above, with R1047H counted along it
Method: as §1

wild-type p110α = assay: Fluorescence polarization assay of p110α activity in p85α/p110α complexes, phosphoinositide as substrate; type: biochemical; details: for p110α activity of the complex compared with the wild type complex (in words): absence of peptide; for Activity of p110α in the complex, No peptide: no phosphotyrosine peptide; for Activity of p110α in the complex, No peptide / Activity of p110α in the complex, Peptide (1 uM): normalized to wild-type complex in the absence of peptide; for Activity of p110α in the complex, Peptide (1 uM): phosphotyrosine (IRS-1) peptide 1 uM
Method: The ability of p85α mutant proteins to form active complexes with p110α was also assessed. Complexes consisting of p85α protein (either wild-type or mutant, as indicated in Table 3 below) and wild-type p110α were expressed in baculovirus. Activity of p110α in the complexes was assessed using a fluorescence polarization assay with phosphoinositide as the substrate. The assay was conducted in the absence or presence of a phosphotyrosine peptide (referred to as “peptide” in Table 3 below). That peptide corresponds to a phosphotyrosine-containing region of Insulin Receptor Substrate-1 that binds to the SH2 region of p85α and enhances the activity of the wild-type p85α/p110α complex. See Miled et al., Science, 317:239-242 (2007). The p85α mutants tested in Table 3 have mutations in their C-terminal SH2 domains. The activities were normalized to the value obtained for p110α in the wild-type complex in the absence of peptide.

T1 sequence (P42336 whole entry E545K): as the sequence (P42336 whole entry H1047R) above, with E545K, R1047H counted along it

Molecule | Binding of p85α to p110α (p110alpha E545K) | Binding of p85α to p110α (p110alpha H1047R) | Binding of p85α to p110α (p110alpha WT) | p110α activity of the complex compared with the wild type complex (in words) (wild-type p110α) | Activity of p110α in the complex, No peptide (wild-type p110α) | Activity of p110α in the complex, Peptide (1 uM) (wild-type p110α)
p85 A682V: mutant form of p85α discovered pursuant to this study | Y | Y | Y | – | – | –
p85 Dominant Negative: known dominant negative form of p85α in which the p110α binding domain from amino acids 479-513 is deleted [reference compound] | N | N | N | – | – | –
p85 E666K: mutant form of p85α discovered pursuant to this study | Y | Y | Y | comparable to that seen in the wild type complex | 0.92 | 2.54
p85 L449S: mutant form of p85α discovered pursuant to this study | Y | Y | Y | – | – | –
p85 N285H: mutant form of p85α discovered pursuant to this study | Y | Y | Y | – | – | –
p85 N527K: mutant form of p85α discovered pursuant to this study | Y | Y | Y | decreased p110α activity | 0.75 | 1.92
p85 N564D: mutant form of p85α discovered pursuant to this study | Y | Y | Y | increased p110α activity | 1.71 | 2.47
p85 R348stop: mutant form of p85α discovered pursuant to this study; truncated | N | N | N | – | – | –
p85 R543I: mutant form of p85α discovered pursuant to this study | Y | Y | Y | – | – | –
p85 R574I: mutant form of p85α discovered pursuant to this study | Y | Y | Y | – | – | –
p85 R642stop: mutant form of p85α discovered pursuant to this study | Y | Y | Y | – | – | –
p85 R649Q: mutant form of p85α discovered pursuant to this study | Y | Y | Y | decreased p110α activity | 0.45 | 1.7
p85 WT: wild-type p85α, regulatory subunit of PI3K encoded by PIK3R1 [reference compound] | – | – | – | – | 1 | 2.77
p85 R162stop: mutant form of p85α discovered pursuant to this study; truncated (protein, left off: small tags and cut ends, mutant form of p85α discovered pursuant to this study; truncated) MSAEGYQYRALYDYKKEREEDIDLHLGDILTVNKGSLVALGFSDGQEARPEEIGWLNGYNETTGERGDFPGTYVEYIGRKKISPPTPKPRPPRPLPVAPGSSKTEADVEQQALTLPDLAEQFAPPDIAPPLLIKLVEAIEKKGLECSTLYRTQSSSNLAEL | N | N | N | – | – | –
